Assays:
Assay in all cases: cell_activity
[1] = test system: ZFN SBS#18881 (ZFN-R, HLA-A2) (synthetic construct); details: pair with 18889, EL/KK FokI, primary T cells, 2.5 ug each mRNA; 19% at 37C and up to 57% with 30C cold shock without EL/KK
[2] = test system: ZFN SBS#25191 (HLA-A3) (synthetic construct); details: HEK293, Surveyor assay; ZFN identity (pair 25191/25190) inferred from Table 1
[3] = test system: ZFN SBS#18889 (ZFN-L, HLA-A2) (synthetic construct); details: pair with 18881, EL/KK FokI, primary T cells, 2.5 ug each mRNA; 19% at 37C and up to 57% with 30C cold shock without EL/KK; Table 2 prints AGG where listing …
[4] = test system: ZFN SBS#25190 (HLA-A3) (synthetic construct); details: HEK293, Surveyor assay; ZFN identity (pair 25191/25190) inferred from Table 1

Sequence: TTATCTGGATGGTGTGAGAACCTGGCCC (double strand) [HLA-A2 target site of 18881]
- activity (% HLA-A2 negative cells) [1]: 52

Sequence: ATGGAGCCGCGGGCGCCGTGGATAGAGC (double strand) [HLA-A3 target site of 25191]
- activity (% modified HLA-A3 alleles) [2]: 10

Sequence: GTATGGCTGCGACGTGGGGTCGGACGGG (double strand) [HLA-A2 target site of 18889]
- activity (% HLA-A2 negative cells) [3]: 52

Sequence: CTGGCTCGCGGCGTCGCTGTCGAACCGC (double strand) [HLA-A3 target site of 25190]
- activity (% modified HLA-A3 alleles) [4]: 10

— patent US20150037304
